Assay results from article PMC10118275.

Legend:
[1] = target: T1, MBP-TDF1 (Arabidopsis thaliana) (UniProt Q9LSI7); test: EMSA; conditions: 10 mM Tris-HCl pH 7.5, 50 mM KCl, 1 mM DTT, 20 uL, room temperature 20 min; 6% polyacrylamide, 0.5x TBE
T1 sequence: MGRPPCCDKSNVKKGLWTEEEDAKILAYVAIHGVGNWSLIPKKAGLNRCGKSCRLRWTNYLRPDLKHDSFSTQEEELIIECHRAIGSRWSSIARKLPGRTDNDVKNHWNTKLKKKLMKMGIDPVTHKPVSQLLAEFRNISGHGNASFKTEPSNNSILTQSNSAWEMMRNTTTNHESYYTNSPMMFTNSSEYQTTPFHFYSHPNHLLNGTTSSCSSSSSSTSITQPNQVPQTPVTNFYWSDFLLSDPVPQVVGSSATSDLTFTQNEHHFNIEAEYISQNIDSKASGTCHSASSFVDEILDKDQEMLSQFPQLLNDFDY

[2] = target: T1, MBP-TDF1 (Arabidopsis thaliana); test: competition; conditions: 10 mM Tris-HCl pH 7.5, 50 mM KCl, 1 mM DTT, 20 uL, room temperature 20 min; 6% polyacrylamide, 0.5x TBE

TACGTGATTAGGATTTGTAACCACGTAGACGTGTAAAACAAAATTACTTTTTTATCTGTGATTTATAGGAATTTGAGATTTGAATGCAACGTTGTTGTTTCATCTAACAATAAGTGATGAAGAACTTCAAAAGTCTAAAACCATATCATTTATAAAATCA (double strand) [SKS18 promoter 18-2 probe]
binding [1]: binds | binding [2]: binds
